According to the supplement of paper PMC7125110:
± gives the standard error. Fewer inactive variants are shown than the library holds.

B1: glmS ribozyme (parent)
chain: AUAAAAGCGCCAGAACUACAGAAAUGUAGUUGACGAGGAGGAGGUUUAUCGAAUUUUCGGCGGAUGCCUCCAAA

Columns and labels:
Conditions in all cases: with glucosamine-6-phosphate
[1] = variants of: B1; test: self-cleavage kobs at 160 uM GlcN6P; higher = faster cleavage; RNA array
Method in brief: (§1)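 Over ~14 h at 37 °C, tiles were imaged as glucosamine-6-phosphate (40 μM to 10 mM) in HEPES/KCl/Mg(OAc)2 buffer flowed across sequenced MiSeq chips. The chips carried barcoded ribozyme variants transcribed in situ by E. coli RNA polymerase and tracked with a hybridised Cy3 probe. After normalisation to baseline and to non-cleaving reference variants, one- or two-exponential decay fits of per-tile medians gave kobs. kcat and KM followed from weighted Michaelis–Menten fits across concentrations.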

[2] = variants of: B1; test: self-cleavage kobs at 640 uM GlcN6P; higher = faster cleavage; RNA array
Method in brief: as §1

[3] = variants of: B1; test: self-cleavage kobs at 2500 uM GlcN6P; higher = faster cleavage; RNA array
Method in brief: as §1

[4] = variants of: B1; test: self-cleavage kobs at 10000 uM GlcN6P; higher = faster cleavage; RNA array
Method in brief: as §1

Row | Variant | self-cleavage kobs at 160 uM GlcN6P [1] [s⁻¹] | self-cleavage kobs at 640 uM GlcN6P [2] [s⁻¹] | self-cleavage kobs at 2500 uM GlcN6P [3] [s⁻¹] | self-cleavage kobs at 10000 uM GlcN6P [4] [s⁻¹]
1 | G7U G13U A15C | < 1e-05 | < 1e-05 | < 1e-05 | 
2 | G7C C8G | < 1e-05 | < 1e-05 | < 1e-05 | < 1e-05
3 | A33C G40U G44C U45A G62U | < 1e-05 |  |  | 
4 | G7C A36G A39C | < 1e-05 | < 1e-05 |  | 
5 | G7U G13C G35U G37A | < 1e-05 |  | < 1e-05 | 
6 | C10G G32U U54G C68A | 5.61e-05 ± 2.2e-05 |  |  | 
7 | U30G G43A U47G | < 1e-05 | < 1e-05 | < 1e-05 | 
8 | G32U G44U U47G A64C | < 1e-05 |  | < 1e-05 | 
9 | G13C G43C C70A | < 1e-05 |  |  | 
10 | A6G G7U C34G | < 1e-05 | < 1e-05 | < 1e-05 | 
11 | G7U C16G U30G G59A U69G | < 1e-05 |  |  | 
12 | G9C G32C A33C A39G C61A | < 1e-05 |  | < 1e-05 | 
13 | A33G A42C | < 1e-05 | < 1e-05 | < 1e-05 | < 1e-05
14 | G7A G37C A64G | < 1e-05 |  |  | 
15 | A33G A53U | < 1e-05 |  | < 1e-05 | < 1e-05
16 | C34A C61A | < 1e-05 | < 1e-05 | < 1e-05 | 
17 | C10U U49G U56A | < 1e-05 |  |  | 
18 | G38U G60U | < 1e-05 | < 1e-05 |  | 
19 | A6C U30G | < 1e-05 |  |  | 
20 | A6U A42C | < 1e-05 |  | < 1e-05 | < 1e-05
21 | A15C U30G C34U G40A U55A | < 1e-05 |  |  | 
22 | U30C G35U C58U C61A | < 1e-05 | < 1e-05 | < 1e-05 | 
23 | G43U G62U C67U | < 1e-05 | < 1e-05 |  | 
24 | A33C A64U C70A | < 1e-05 |  | < 1e-05 | 
25 | C11A G43C C61G | < 1e-05 | < 1e-05 | < 1e-05 | 
26 | A12G U56C G60A | < 1e-05 | < 1e-05 | < 1e-05 | 
27 | A36C G51C | < 1e-05 |  |  | < 1e-05
28 | G32C A64G | < 1e-05 |  | 5.42e-05 ± 1.9e-05 | 
29 | A15C G60C C61U | < 1e-05 |  |  | 
